{"source": "paper PMC8717395", "about": "(JACS Au, 2021)", "molecules": {"B1": {"name": "soluble pyridine nucleotide transhydrogenase SthA from E. coli (enzyme, E. coli K-12, UniProt P27306 1-466, looked up)", "chain": "MPHSYDYDAIVIGSGPGGEGAAMGLVKQGARVAVIERYQNVGGGCTHWGTIPSKALRHAVSRIIEFNQNPLYSDHSRLLRSSFADILNHADNVINQQTRMRQGFYERNHCEILQGNARFVDEHTLALDCPDGSVETLTAEKFVIACGSRPYHPTDVDFTHPRIYDSDSILSMHHEPRHVLIYGAGVIGCEYASIFRGMDVKVDLINTRDRLLAFLDQEMSDSLSYHFWNSGVVIRHNEEYEKIEGCDDGVIMHLKSGKKLKADCLLYANGRTGNTDSLALQNIGLETDSRGQLKVNSMYQTAQPHVYAVGDVIGYPSLASAAYDQGRIAAQALVKGEATAHLIEDIPTGIYTIPEISSVGKTEQQLTAMKVPYEVGRAQFKHLARAQIVGMNVGTLKILFHRETKEILGIHCFGERAAEIIHIGQAIMEQKGGGNTIEYFVNTTFNYPTMAEAYRVAALNGLNRLF"}, "B2": {"name": "Fdh (Ancylobacter novellus DSM 506) (protein)", "chain": "MAKILCVLYDDPVDGYPKTYARDDLPKIDHYPGGQTLPTPKAIDFTPGALLGSVSGELGLRKYLEANGHTFVVTSDKDGPDSVFERELVDADVVISQPFWPAYLTPERIAKAKNLKLALTAGIGSDHVDLQSAIDRGITVAEVTYCNSISVAEHVVMMILGLVRNYIPSHDWARKGGWNIADCVEHSYDLEGMTVGSVAAGRIGLAVLRRLAPFDVKLHYTDRHRLPEAVEKELGLVWHDTREDMYPHCDVVTLNVPLHPETEHMINDETLKLFKRGAYIVNTARGKLADRDAIVRAIESGQLAGYAGDVWFPQPAPKDHPWRTMKWEGMTPHISGTSLSAQARYAAGTREILECFFEGRPIRDEYLIVQGGALAGTGAHSYSKGNATGGSEEAAKFKKAG"}, "B3": {"name": "SthA (Escherichia coli K-12) (protein)", "chain": "PHSYDYDAIVIGSGPGGEGAAMGLVKQGARVAVIERYQNVGGGCTHWGTIPSKALRHAVSRIIEFNQNPLYSDHSRLLRSSFADILNHADNVINQQTRMRQGFYERNHCEILQGNARFVDEHTLALDCPDGSVETLTAEKFVIACGSRPYHPTDVDFTHPRIYDSDSILSMHHEPRHVLIYGAGVIGCEYASIFRGMDVKVDLINTRDRLLAFLDQEMSDSLSYHFWNSGVVIRHNEEYEKIEGCDDGVIMHLKSGKKLKADCLLYANGRTGNTDSLALQNIGLETDSRGQLKVNSMYQTAQPHVYAVGDVIGYPSLASAAYDQGRIAAQALVKGEATAHLIEDIPTGIYTIPEISSVGKTEQQLTAMKVPYEVGRAQFKHLARAQIVGMNVGTLKILFHRETKEILGIHCFGERAAEIIHIGQAIMEQKGGGNTIEYFVNTTFNYPTMAEAYRVAALNGLNRLF"}}, "key": {"[1]": {"biological_target": "NAD+-dependent formate dehydrogenase from Starkeya novella (Starkeya novella)"}, "[2]": {"biological_target": "the molecule itself"}, "purified protein [3]": {"substrate": "NC(=O)c1ccc[n+]([C@@H]2O[C@H](COP(=O)([O-])OP(=O)(O)OC[C@H]3O[C@@H](n4cnc5c(N)ncnc54)[C@H](O)[C@@H]3O)[C@@H](O)[C@H]2O)c1", "assay": "purified protein", "conditions": "20 mM formate, buffer B, 30 °C"}, "purified protein [4]": {"substrate": "O=CO", "assay": "purified protein", "conditions": "2.0 mM NAD+, buffer B, 30 °C"}, "purified protein [5]": {"substrate": "NC(=S)c1ccc[n+]([C@@H]2O[C@H](COP(=O)(O)OP(=O)(O)OC[C@H]3O[C@@H](n4cnc5c(N)ncnc54)[C@H](OP(=O)(O)O)[C@@H]3O)[C@@H](O)[C@H]2O)c1", "assay": "purified protein", "conditions": "15.0 mM NADH; buffer B; substrate inhibition term in fit"}}}
{"molecule": "NAD+-dependent formate dehydrogenase from Starkeya novella (enzyme)", "values": [{"measurement": "stoichiometry N", "setting": "[1]", "result": 2}]}
{"molecule": "B1", "values": [{"measurement": "stoichiometry N", "setting": "[2]", "result": 8}]}
{"molecule": "B2", "values": [{"measurement": "Km", "setting": "purified protein [3]", "result": 110, "unit": "µM"}, {"measurement": "kcat", "setting": "purified protein [3]", "result": 1.08, "unit": "s⁻¹"}, {"measurement": "Km", "setting": "purified protein [4]", "result": 2150, "unit": "µM"}, {"measurement": "kcat", "setting": "purified protein [4]", "result": 0.87, "unit": "s⁻¹"}]}
{"molecule": "B3", "values": [{"measurement": "Km", "setting": "purified protein [5]", "result": 30, "unit": "µM"}, {"measurement": "kcat", "setting": "purified protein [5]", "result": 19.9, "unit": "s⁻¹"}]}
